The values that follow come from patent US20200299400A1.

What is called EC50 is the concentration at which the effect is half-maximal. Higher therefore signals weaker potency.

The assay deals with human GITR on activated CD4 T cells (human) (UniProt Q9Y5U5). The assay is described as follows: FACS binding to activated human CD4 T cells.
human GITR on activated CD4 T cells (human), sequence (Q9Y5U5 26-241): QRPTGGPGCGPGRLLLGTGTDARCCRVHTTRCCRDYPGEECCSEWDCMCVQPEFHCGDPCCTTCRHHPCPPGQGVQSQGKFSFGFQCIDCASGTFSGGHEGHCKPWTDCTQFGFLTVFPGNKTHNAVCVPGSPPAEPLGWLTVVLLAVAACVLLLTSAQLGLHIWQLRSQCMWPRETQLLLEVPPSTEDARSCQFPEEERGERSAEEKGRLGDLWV

The substance unrelated hIgG1 registered a half-maximal effective concentration (EC50) of 132 nM.

Substance unrelated hIgG2 gave an EC50 of 6.72 nM. This EC50 lies about 20-fold lower than the previous one.
